Reference: patent US20130209454A1 (CALIFORNIA INSTITUTE OF TECHNOLOGY, published 2013)

What was measured:
Experiment in all cases: cell-based or functional assay
[1] = biological target: HIV-1 Env of strain 6540.v4.cl (HIV-1)
[2] = biological target: HIV-1 Env of strain P1981_C5_3 (HIV-1)
[3] = biological target: HIV-1 Env of strain ZM135M.PL10a (HIV-1)
[4] = biological target: HIV-1 Env of strain R2184.c04 (HIV-1)
[5] = biological target: HIV-1 Env of strain CNE17 (HIV-1)
[6] = biological target: HIV-1 Env of strain TRO.11 (HIV-1)
[7] = biological target: HIV-1 Env of strain Ce703010054_2A2 (HIV-1)
[8] = biological target: HIV-1 Env of strain 6480.v4.c25 (HIV-1)
[9] = biological target: HIV-1 Env of strain T257-31 (HIV-1)
[10] = biological target: HIV-1 Env of strain Ce2060_G9 (HIV-1)
[11] = biological target: HIV-1 Env of strain CNE58 (HIV-1)
[12] = biological target: HIV-1 Env of strain PVO.4 (HIV-1)
[13] = biological target: HIV-1 Env of strain 0815.v3.c3 (HIV-1)
[14] = biological target: HIV-1 Env of strain CAAN5342.A2 (HIV-1)
[15] = biological target: HIV-1 Env of strain Ce1176_A3 (HIV-1)
[16] = biological target: HIV-1 Env of strain Ce2010_F5 (HIV-1)
[17] = biological target: HIV-1 Env of strain T278-50 (HIV-1)
[18] = biological target: HIV-1 Env of strain 703357.C02 (HIV-1)
[19] = biological target: HIV-1 Env of strain 3103.v3.c10 (HIV-1)
[20] = biological target: HIV-1 Env of strain Du172.17 (HIV-1)
[21] = biological target: HIV-1 Env of strain C3347.c11 (HIV-1)
[22] = biological target: HIV-1 Env of strain 89-F1_2_25 (HIV-1)
[23] = biological target: HIV-1 Env of strain 3718.v3.c11 (HIV-1)
[24] = biological target: HIV-1 Env of strain T250-4 (HIV-1)

B1: NIH45-46 IgG (antibody, V domains shown)
VH: QVRLSQSGGQMKKPGESMRLSCRASGYEFLNCPINWIRLAPGRRPEWMGWLKPRGGAVNYARKFQGRVTMTRDVYSDTAFLELRSLTSDDTAVYFCTRGKYCTARDYYNWDFEHWGRGAPVTVSS
VL: EIVLTQSPATLSLSPGETAIISCRTSQSGSLAWYQQRPGQAPRLVIYSGSTRAAGIPDRFSGSRWGADYNLSISNLESGDFGVYYCQQYEFFGQGTKVQVDI
[1]
  neutralization IC50: > 50 µg/mL
[2]
  neutralization IC50: 0.08 µg/mL
[3]
  neutralization IC50: 0.59 µg/mL
[4]
  neutralization IC50: 0.034 µg/mL
[5]
  neutralization IC50: 0.261 µg/mL
[6]
  neutralization IC50: 1.61 µg/mL
[7]
  neutralization IC50: 0.159 µg/mL
[8]
  neutralization IC50: 0.032 µg/mL
[9]
  neutralization IC50: 0.49 µg/mL
[10]
  neutralization IC50: 0.058 µg/mL
[11]
  neutralization IC50: 0.43 µg/mL
[12]
  neutralization IC50: 0.12 µg/mL
[13]
  neutralization IC50: 0.014 µg/mL
[14]
  neutralization IC50: 0.15 µg/mL
[15]
  neutralization IC50: 0.93 µg/mL
[16]
  neutralization IC50: 0.101 µg/mL
[17]
  neutralization IC50: > 50 µg/mL
[18]
  neutralization IC50: 19.2 µg/mL
[19]
  neutralization IC50: 1.77 µg/mL
[20]
  neutralization IC50: > 50 µg/mL
[21]
  neutralization IC50: 0.029 µg/mL
[22]
  neutralization IC50: > 50 µg/mL
[23]
  neutralization IC50: 19.6 µg/mL
[24]
  neutralization IC50: > 50 µg/mL
